# According to patent publication US20250276076A1 (Seagen, published 2025):
# Residue numbers refer to the chain shown, from its start.
# B1: murine antibody 12F3 (antibody, V domains shown)
# VH: EVKLVESGGGLVQPGGSLSLSCAASGFTFTDYYMSWVRQPPGKALEWLALIRNKATGYTTEYSASVKGRFTISRDNSQSILYLQMNALRAEDSATYYCARASFYYDGKVLAYWGQGTLVTVSA
# VL: DTQMTQSPSSLSASLGGKVTITCKASQDINKYIAWYQYKTGKGPRLLIHYTSTLQPGIPSRFSGSGSGRDYSFSISNLEPEDIATYYCLQYDNLYTFGGGTKLEIK
# notes: mouse hybridoma antibody; also called SG82-12F3; m12F3
# B2: h12F3 HGLF-mp-dLAE-MMAE (antibody)
# VH: not shown
# VL: DTQMTQSPSSLSASVGDRVTITCQASQDINKYLAWYQYKPGKAPKLLIHYTSSLQSGVPSRFSGSGSGRDYTFTISSLQPEDIATYYCLQYDNLYTFGQGTKLEIKRTVAAPSVFIFPPSDEQLKSGTASVVCLLNNFYPREAKVQWKVDNALQSGNSQESVTEQDSKDSTYSLSSTLTLSKADYEKHKVYACEVTHQGLSSPVTKSFNRGEC
# modifications: mp-dLAE-PABC-MMAE drug-linker on cysteines of the partially reduced antibody, 4 loads per antibody (chain and site not stated)
# notes: antibody-drug conjugate of h12F3 HGLF; also called h12F3-mp-dLAE-MMAE; HGLF-dLAE-MMAE(4); copies: 2 + 2
# B3: h12F3 HGLF-mc-vc-MMAE (antibody)
# VH: not shown
# VL: B2 VL
# modifications: mc-vc-PABC-MMAE drug-linker on cysteines of the partially reduced antibody, 4 loads per antibody (chain and site not stated)
# notes: antibody-drug conjugate of h12F3 HGLF; also called h12F3 HGLF-me-vc-MMAE; h12F3 HGLF-vc-MMAE(4); copies: 2 + 2
# B4: h12F3 HFLD (antibody, V domains shown)
# VH: EVQLVESGGGLVQPGRSLRLSCTASGFTFTDYYMSWVRQAPGKGLEWLALIRNKATGYTTEYSASVKGRFTISRDNSKSILYLQMNSLKTEDTAVYYCARASFYYDGKVLAYWGQGTLVTVSS
# VL: DTQMTQSPSSLSASVGDRVTITCQASQDINKYIAWYQQKPGKAPKLLIYYTSSLQPGVPSRFSGSGSGTDYTFTISSLQPEDIATYYCLQYDNLYTFGQGTKLEIKR
# notes: humanized 12F3 IgG variant
# B5: h12F3 HGLF (antibody, V domains shown)
# VH: B4 VH with S63T
# VL: DTQMTQSPSSLSASVGDRVTITCQASQDINKYLAWYQYKPGKAPKLLIHYTSSLQSGVPSRFSGSGSGRDYTFTISSLQPEDIATYYCLQYDNLYTFGQGTKLEIK
# notes: Whole humanized IgG; also called humanized 12F3 HGLF; naked h12F3 antibody
# Columns and labels:
# human ALPP (on cells) [1] = molecular target: T1, human ALPP (on cells) (human, UniProt P05187 23-506); assay: flow cytometry on ALPP-expressing HEK293 cells
# T1 construct: the construct in the cells is not further defined; also called placental alkaline phosphatase; PLAP
# T1 sequence (P05187 23-506 limits assumed): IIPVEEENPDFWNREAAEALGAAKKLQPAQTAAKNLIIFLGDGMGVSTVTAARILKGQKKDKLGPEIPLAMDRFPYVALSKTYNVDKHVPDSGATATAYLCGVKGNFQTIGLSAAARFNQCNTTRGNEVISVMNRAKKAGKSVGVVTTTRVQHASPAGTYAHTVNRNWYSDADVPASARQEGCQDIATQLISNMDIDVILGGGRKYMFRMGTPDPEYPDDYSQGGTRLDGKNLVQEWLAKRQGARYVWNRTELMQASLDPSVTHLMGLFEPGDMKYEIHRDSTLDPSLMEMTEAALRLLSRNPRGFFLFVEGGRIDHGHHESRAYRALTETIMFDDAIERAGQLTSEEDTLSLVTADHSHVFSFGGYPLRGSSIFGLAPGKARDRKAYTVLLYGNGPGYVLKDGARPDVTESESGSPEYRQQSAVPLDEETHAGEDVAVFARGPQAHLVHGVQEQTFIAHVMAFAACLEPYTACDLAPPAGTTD
# Method: (§1) Cynomolgus ALPP, human ALPP, ALPPL2, ALPI and ALPL-expressing HEK293 cells were used to evaluate specificity and binding affinity. Briefly, one hundred thousand target-expressing HEK293 cells were transferred to 96-well plates. Cells were pelleted by centrifugation and resuspended in 100 μL of PBS+2% w/v BSA. After blocking, cells were resuspended in PBS+2% w/v BSA with unlabeled monoclonal anti-ALPP/ALPPL2 antibodies ranging in concentration from 8 pM to 666 nM and incubated on ice for 30 minutes. Cells were washed twice in PBS and resuspended in R-PE labeled secondary goat anti-human or anti-mouse antibodies (Jackson Immunoresearch, West Grove, PA) for 30 minutes on ice. […] Fluorescence was analyzed using an Attune NxT flow cytometer, and the percent of saturated fluorescent signal was used to determine percent bound and to subsequently calculate apparent KD.
# human ALPPL2 (on cells) [2] = molecular target: T2, human ALPPL2 (on cells) (human, UniProt P10696 20-503); assay: flow cytometry on ALPPL2-expressing HEK293 cells
# T2 construct: the construct in the cells is not further defined; also called HEK-ALPPL2 cells; ALPPL2-expressing LoVo cells
# T2 sequence (P10696 20-503 limits assumed): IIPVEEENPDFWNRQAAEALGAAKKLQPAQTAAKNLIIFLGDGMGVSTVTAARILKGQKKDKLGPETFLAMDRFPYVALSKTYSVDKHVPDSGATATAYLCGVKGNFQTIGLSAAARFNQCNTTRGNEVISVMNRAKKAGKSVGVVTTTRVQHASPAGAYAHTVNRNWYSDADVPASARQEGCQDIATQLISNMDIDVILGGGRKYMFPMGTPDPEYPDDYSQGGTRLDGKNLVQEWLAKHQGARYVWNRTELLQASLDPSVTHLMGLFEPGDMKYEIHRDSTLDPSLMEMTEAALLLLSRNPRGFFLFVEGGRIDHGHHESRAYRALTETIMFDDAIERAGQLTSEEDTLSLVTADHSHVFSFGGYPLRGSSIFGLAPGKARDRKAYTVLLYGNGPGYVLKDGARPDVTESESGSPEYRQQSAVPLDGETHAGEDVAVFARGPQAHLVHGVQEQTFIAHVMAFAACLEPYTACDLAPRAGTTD
# Method: as §1
# human ALPP (on cells) [3] = molecular target: T1, human ALPP (on cells); assay: flow cytometry saturation binding on ALPP-expressing HEK293 cells (row 'nM Kd' of the table under the plot)
# Method: as §1
# human ALPPL2 (on cells) [4] = molecular target: T2, human ALPPL2 (on cells); assay: flow cytometry saturation binding on ALPPL2-expressing HEK293 cells (row 'nM Kd' of the table under the plot)
# Method: as §1
# [5] = molecular target: T3, hscFcRN (biotinylated avi-tagged, fused with monomeric Fc) (human, UniProt P55899 24-297; P61769 21-119, limits assumed, biotin on avi tag); assay: BLI (Octet HTX, 30 °C), biotinylated hFcRN on streptavidin biosensors, ADC as analyte, 1:1 fit, pH 6.0
# T3 construct: also called hFcRN; hscFcRN hmFc IHH A avi Biotin
# T3 sequence (P55899 24-297 limits assumed, form in doubt, chain 1 of 2): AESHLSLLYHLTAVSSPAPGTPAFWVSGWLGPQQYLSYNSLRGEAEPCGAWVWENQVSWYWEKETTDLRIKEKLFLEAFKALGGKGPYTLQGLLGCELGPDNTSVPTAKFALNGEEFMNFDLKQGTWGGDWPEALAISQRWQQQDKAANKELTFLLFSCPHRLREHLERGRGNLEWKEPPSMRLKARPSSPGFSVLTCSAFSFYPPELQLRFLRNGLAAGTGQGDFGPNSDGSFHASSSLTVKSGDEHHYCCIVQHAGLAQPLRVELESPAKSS
# T3 sequence (P61769 21-119 limits assumed, form in doubt, chain 2 of 2): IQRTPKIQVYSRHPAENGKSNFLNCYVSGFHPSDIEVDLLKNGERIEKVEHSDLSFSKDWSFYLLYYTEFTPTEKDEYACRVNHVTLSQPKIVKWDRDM
# Text: (§2) Biotinylated avi-tagged human Fc receptors fused with monomeric Fc (designed and expressed at Seagen) were loaded onto high precision streptavidin biosensors (from ForteBio) to responses around 0.4 nm for all receptors except for hFcγR1 with responses around 1.2 nm. An initial baseline was completed in immobilization buffer (0.1% BSA, 0.02% Tween 20, 1×PBS pH 7.4) followed by a second baseline in kinetic buffer (1% casein, 0.2% Tween 20, 1×PBS pH 7.4 for hFcγRI, IIa, IIIa, and IIb interactions and 1% BSA+0.2% Tween 20, Phosphate Citrate pH 6.0 for hscFcRN interactions). […] Sensorgrams were generated on an Octet HTX system (ForteBio) at 30° C. and globally fitted with the 1:1 kinetic Langmuir isotherm model (Rmax unlinked) after a reference subtraction of the antigen-loaded, 0 nM analyte sensor. Negative controls with the highest concentration of antibodies and ADCs (20 μM) with no Fc receptor immobilized were also included to verify the absence of nonspecific binding of the analyte to the streptavidin biosensors themselves. Specific loading concentrations and times of each receptor to the streptavidin sensors and concentrations of titrated analytes are listed (Table 12 and Table 13).
# [6] = molecular target: T4, hFcγRIIIa V158 (biotinylated avi-tagged, fused with monomeric Fc) (human, UniProt P08637 17-208, biotin on avi tag); assay: BLI (Octet HTX, 30 °C), biotinylated Fc receptor on streptavidin biosensors, ADC as analyte, 1:1 fit, pH 7.4
# T4 construct: also called hFcγRIIIa V158 hmFc AAG avi Biotin
# T4 sequence (P08637 17-208 F176V): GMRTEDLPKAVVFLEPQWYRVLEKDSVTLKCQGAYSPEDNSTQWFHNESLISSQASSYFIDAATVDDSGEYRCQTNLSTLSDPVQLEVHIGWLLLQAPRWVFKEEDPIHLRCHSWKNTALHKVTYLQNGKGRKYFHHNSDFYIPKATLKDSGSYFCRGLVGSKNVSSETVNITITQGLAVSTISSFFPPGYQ
# Text: as §2
# [7] = molecular target: T5, hFcγRIIb (biotinylated avi-tagged, fused with monomeric Fc) (human, UniProt P31994 43-217, biotin on avi tag); assay: as above
# T5 construct: also called hFcγRIIb hmFc AAG avi Biotin
# T5 sequence (looked up): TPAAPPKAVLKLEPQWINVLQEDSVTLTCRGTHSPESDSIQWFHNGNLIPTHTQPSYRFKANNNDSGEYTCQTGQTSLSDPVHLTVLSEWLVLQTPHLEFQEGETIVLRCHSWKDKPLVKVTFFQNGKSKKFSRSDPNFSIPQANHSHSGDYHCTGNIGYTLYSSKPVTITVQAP
# Text: as §2
# [8] = molecular target: T6, hFcγRIIa R131 (biotinylated avi-tagged, fused with monomeric Fc) (human, UniProt P12318 34-217, biotin on avi tag); assay: as above
# T6 construct: also called hFcγRIIa R131 hmFc AAG avi Biotin
# T6 sequence (looked up): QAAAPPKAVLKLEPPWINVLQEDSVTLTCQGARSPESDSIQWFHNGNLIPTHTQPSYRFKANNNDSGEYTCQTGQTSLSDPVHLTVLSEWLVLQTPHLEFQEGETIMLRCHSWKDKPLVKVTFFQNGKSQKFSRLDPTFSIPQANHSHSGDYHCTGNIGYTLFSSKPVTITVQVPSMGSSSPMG
# Text: as §2
# [9] = molecular target: T7, soluble human ALPP-Fc fusion dimer (human, UniProt P05187 23-506); assay: BLI (Octet), antibody on anti-human Fab-CH1 biosensors, hALPP Fc homodimer as analyte, pH 7.4, 37 °C, bivalent affinity
# T7 construct: Made in CHO cells; also called hALPP; hALPP Fc
# T7 sequence (P05187 23-506 limits assumed): as the sequence (P05187 23-506 limits assumed) above
# Text: (§3) Soluble human ALPP-Fc and ALPPL2-Fc fusion dimer proteins were generated in CHO cells to be used as the analyte. […] After reference subtraction of the probe only curve, the data was globally fit with a 1:1 model with the Rmax sensor unlinked.
# [10] = molecular target: T7, soluble human ALPP-Fc fusion dimer; assay: BLI, antibody on FAB2G biosensors, ALPP-Fc dimer as analyte, bivalent, pH 6.0, 37 C
# Text: as §3
# (§4) The only difference was the use of a different kinetic buffer (1% casein and 0.2% Tween20 in phosphate citrate pH 6.0).
# [11] = molecular target: T8, soluble human ALPPL2-Fc fusion dimer (human, UniProt P10696 20-503); assay: BLI, antibody on FAB2G biosensors, ALPPL2-Fc dimer as analyte, bivalent, pH 6.0, 37 C
# T8 construct: Made in CHO cells; also called hALPPL2
# T8 sequence (P10696 20-503 limits assumed): as the sequence (P10696 20-503 limits assumed) above
# Text: as §3, §4
# [12] = molecular target: T7, soluble human ALPP-Fc fusion dimer; assay: BLI (Octet Red 384), antibody on FAB2G biosensors, ALPP-Fc dimer as analyte, bivalent, pH 7.4, 37 C, 1:1 global fit
# Text: as §3
# [13] = molecular target: T8, soluble human ALPPL2-Fc fusion dimer; assay: BLI (Octet Red 384), antibody on FAB2G biosensors, ALPPL2-Fc dimer as analyte, bivalent, pH 7.4, 37 C, 1:1 global fit
# Text: as §3
binder,measurement,setting,value
B1,EC50 (read off the curve),human ALPP (on cells) [1],~0.3 mg/L
same,EC50 (read off the curve),human ALPPL2 (on cells) [2],~0.3 mg/L
same,Kd,human ALPP (on cells) [3],1.76 nM
same,Kd,human ALPPL2 (on cells) [4],1.48 nM
B2,Kd,[5],10.6 nM
same,Kd,[6],1100 nM
same,Kd,[7],36000 nM
B3,Kd,[5],13.2 nM
same,Kd,[8],7300 nM
same,Kd,[7],67000 nM
B4,Kd,[9],3.5 nM
B5,Kd,[10],6.8 nM
same,Kd,[11],4.8 nM
same,Kd,[12],0.13 nM
same,Kd,[13],0.044 nM
